Experimental data reported in patent US20240132587A1 (AstraZeneca / MedImmune, published 2024).
Residue numbers refer to the chain shown, from its start. One block for each binder: values may come before it.

What was measured:
human CLDN18.2 [1] = molecular target: T1, human CLDN18.2 (human, UniProt P56856-2 1-261); test: flow cytometry, IgG1 (0-533 nM) on HEK293 cells expressing human CLDN18.2
T1 construct: whole, on cells; also called CLDN18.2 wild-type
T1 sequence (looked up): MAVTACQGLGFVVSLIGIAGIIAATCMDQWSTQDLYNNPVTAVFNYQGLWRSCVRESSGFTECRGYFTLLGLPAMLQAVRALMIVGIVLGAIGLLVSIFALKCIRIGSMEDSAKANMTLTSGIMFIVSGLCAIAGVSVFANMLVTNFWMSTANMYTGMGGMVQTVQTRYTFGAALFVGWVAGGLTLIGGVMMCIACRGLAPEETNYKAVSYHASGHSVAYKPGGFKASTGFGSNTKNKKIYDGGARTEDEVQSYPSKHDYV
Description: (§1) Purified CLDN18.2 antibodies were then characterized for affinity and cross-reactivity by flow cytometry. Briefly. HEK293 cells expressing human, cynomolgous monkey, rat or mouse CLDN18.2 were resuspended in FACS Buffer, stained with varying antibody concentrations (0-533 nM), washed with FACS Buffer, stained with Alexa Fluor® 647 AffiniPure F(ab′)₂ Fragment Goat Anti-Human IgG, washed with FACS buffer and stained with FACS buffer supplemented with DAPI. Antibody binding to cells was assessed on a FACSymphony (BD) with gates for live/dead cells. Histograms of median fluorescence intensity (MFI) were used to calculate the geometric mean for each antibody at a given concentration (FlowJo, LLC). Geometric means were plotted in Prism (GraphPad) and used to calculated binding EC₅₀. Representative results are shown for 5 antibodies (ZP1I16_D05 IgG1, 008LY1_D04 IgG1, 08LYG_D08 IgG1, 008M0G_G03 IgG1, ZP1I18_B08 IgG1) and 1 negative control antibody (R347 IgG1) although 31 other prospective antibodies were also characterized (Table 1).

human CLDN18.2 [2] = molecular target: T1, human CLDN18.2; test: flow cytometry on HEK293 cells expressing human CLDN18.2 (FIG. 2A)
Source text: FIGS. 2A-2D show CLDN18.2 binding affinity and species cross-reactivity of select leads as determined by flow cytometry measurement in HEK293 cells expressing human (FIG. 2A), cyno (FIG. 2B), rat (FIG. 2C) or mouse (FIG. 2D) CLDN18.2. All leads bind human and cyno CLDN18.2 (99% homology), most leads bind rat CLDN18.2 (90% homology) and only one internal lead binds murine CLDN18.2 (89% homology. R347 is used as a negative control.
as §1

mouse CLDN18.2 = molecular target: T2, mouse CLDN18.2 (mouse, UniProt P56857-3 1-264); test: flow cytometry, IgG1 (0-533 nM) on HEK293 cells expressing mouse CLDN18.2
T2 construct: whole, on cells; also called murine CLDN18.2; mCLDN18.2
T2 sequence (looked up): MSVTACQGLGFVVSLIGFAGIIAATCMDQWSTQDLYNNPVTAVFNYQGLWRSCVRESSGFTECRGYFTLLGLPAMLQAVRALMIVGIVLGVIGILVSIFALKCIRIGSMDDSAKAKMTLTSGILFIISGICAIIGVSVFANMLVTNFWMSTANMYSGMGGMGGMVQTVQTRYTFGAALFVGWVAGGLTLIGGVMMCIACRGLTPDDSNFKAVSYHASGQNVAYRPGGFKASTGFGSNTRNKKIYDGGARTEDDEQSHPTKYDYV
Description: as §1

binding result (human CLDN18.2 [1]): binds
B1: ZP1I16_D05 IgG1 (antibody, V domains shown)
VH: QVQLVQSGAEVKKPGSSVKVSCKASGGTFSSYAISWVRQAPGQGLEWMGGIIPIFGTANYAQKFQGRVTITADESTSTAYMELSSLRSEDTAVYYCARGFIRYGVFDYWGQGTLVTVSS
VL: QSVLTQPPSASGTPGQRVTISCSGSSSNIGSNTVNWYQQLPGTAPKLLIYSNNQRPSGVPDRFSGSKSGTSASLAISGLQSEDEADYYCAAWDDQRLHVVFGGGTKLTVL
notes: Tested as IgG1 with lambda light chain (pOE-IgG1 (λLC))

binding result (human CLDN18.2 [2]): binds
B2: 008LY1_D04 IgG1 (antibody, V domains shown)
VH: B1 VH with F100Y, I101V, R102Q, V105Y
VL: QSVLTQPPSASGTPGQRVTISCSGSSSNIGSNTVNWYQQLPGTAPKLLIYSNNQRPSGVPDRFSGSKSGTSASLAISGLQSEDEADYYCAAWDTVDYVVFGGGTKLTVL
notes: as for B1

binding result (human CLDN18.2 [2]): binds
B3: ZP1I18_B08 IgG1 (antibody, V domains shown)
VH: B1 VH
VL: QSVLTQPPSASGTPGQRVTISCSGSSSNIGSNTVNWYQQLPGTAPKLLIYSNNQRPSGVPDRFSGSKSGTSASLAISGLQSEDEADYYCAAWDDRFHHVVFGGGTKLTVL
notes: as for B1

binding result (human CLDN18.2 [2]): binds
B4: 008M0G_G03 IgG1 (antibody, V domains shown)
VH: B1 VH with F100Y, I101P
VL: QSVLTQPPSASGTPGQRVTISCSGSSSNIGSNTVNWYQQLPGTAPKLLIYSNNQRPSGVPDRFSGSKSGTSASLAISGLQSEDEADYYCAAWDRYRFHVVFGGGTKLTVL
notes: as for B1

binding result (human CLDN18.2 [2]): binds | binding result (mouse CLDN18.2): binds
B5: 008LYG_D08 IgG1 (antibody, V domains shown)
VH: B1 VH with F100Y, I101Q, R102G, Y103M, Y108P
VL: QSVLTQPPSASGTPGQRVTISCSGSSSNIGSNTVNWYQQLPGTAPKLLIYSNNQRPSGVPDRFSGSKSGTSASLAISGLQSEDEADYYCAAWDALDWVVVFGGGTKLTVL
notes: as for B1
